According to publication PMC8980801 (2022):

Key:
[1] = target: FLAG-Fzd4-3C-sGFP1–10-PDZ (mouse | not stated) (UniProt Q61088); assay: SEC; FLAG-Fzd4-sGFP1–10 and FLAG-Fzd4-sGFP11 coexpressed in Sf9, solubilised in DDM, M1 anti-FLAG eluate on Superose 6 to separate dimers from monomers; total protein compared with GFP fluorescence
[2] = target: T1, Fzd4 homodimer in biotinylated nanodiscs (mouse, UniProt Q61088 42-537); assay: BLI
T1 chain: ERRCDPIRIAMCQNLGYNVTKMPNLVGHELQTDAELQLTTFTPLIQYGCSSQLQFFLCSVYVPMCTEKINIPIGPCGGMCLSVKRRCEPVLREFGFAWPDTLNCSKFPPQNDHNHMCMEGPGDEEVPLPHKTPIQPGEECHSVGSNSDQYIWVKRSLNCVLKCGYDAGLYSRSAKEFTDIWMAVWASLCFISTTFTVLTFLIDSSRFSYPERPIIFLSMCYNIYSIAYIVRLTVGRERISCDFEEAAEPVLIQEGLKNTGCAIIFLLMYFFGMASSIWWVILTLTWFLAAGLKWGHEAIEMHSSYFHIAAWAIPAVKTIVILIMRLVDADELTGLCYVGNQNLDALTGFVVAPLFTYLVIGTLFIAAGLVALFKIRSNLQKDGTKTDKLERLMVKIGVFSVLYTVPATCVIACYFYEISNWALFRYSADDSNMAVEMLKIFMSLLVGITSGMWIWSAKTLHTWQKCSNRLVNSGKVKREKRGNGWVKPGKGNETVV

[3] = target: T1, Fzd4 homodimer in biotinylated nanodiscs; assay: BLI; biotinylated nanodiscs on streptavidin biosensors, 0-10 nM MBP–Norrin, 3 h association, 25 °C, 20 mM Hepes pH 7.4, 150 mM NaCl, 1 mM EDTA, 1 mg/ml BSA; steady state
[4] = target: T2, Fzd4–LRP6 heterodimer in biotinylated nanodiscs, prebound to Norrin (mouse | human | , UniProt Q61088 42-537; O75581 20-1439; Q00604 33-133); assay: BLI
[5] = target: T2, Fzd4–LRP6 heterodimer in biotinylated …; assay: BLI; remark: listed apart in the source
[6] = target: T3, Fzd4–LRP6 heterodimer in biotinylated nanodiscs (mouse | human, UniProt Q61088 42-537; O75581 20-1439); assay: BLI; without Norrin
T3 chain 1: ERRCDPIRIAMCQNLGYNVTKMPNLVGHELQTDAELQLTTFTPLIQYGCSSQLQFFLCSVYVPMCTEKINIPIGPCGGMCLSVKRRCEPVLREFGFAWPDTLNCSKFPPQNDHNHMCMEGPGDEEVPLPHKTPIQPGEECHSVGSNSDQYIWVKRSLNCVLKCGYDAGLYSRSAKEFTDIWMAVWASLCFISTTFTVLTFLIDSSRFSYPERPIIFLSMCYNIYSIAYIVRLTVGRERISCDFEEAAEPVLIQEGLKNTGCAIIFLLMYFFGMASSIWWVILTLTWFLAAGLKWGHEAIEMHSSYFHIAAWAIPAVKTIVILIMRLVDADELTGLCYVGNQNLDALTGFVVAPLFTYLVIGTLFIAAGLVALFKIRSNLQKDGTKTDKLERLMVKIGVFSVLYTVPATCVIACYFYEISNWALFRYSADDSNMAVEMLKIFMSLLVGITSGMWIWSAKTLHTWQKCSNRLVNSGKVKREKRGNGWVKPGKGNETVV
T3 chain 2: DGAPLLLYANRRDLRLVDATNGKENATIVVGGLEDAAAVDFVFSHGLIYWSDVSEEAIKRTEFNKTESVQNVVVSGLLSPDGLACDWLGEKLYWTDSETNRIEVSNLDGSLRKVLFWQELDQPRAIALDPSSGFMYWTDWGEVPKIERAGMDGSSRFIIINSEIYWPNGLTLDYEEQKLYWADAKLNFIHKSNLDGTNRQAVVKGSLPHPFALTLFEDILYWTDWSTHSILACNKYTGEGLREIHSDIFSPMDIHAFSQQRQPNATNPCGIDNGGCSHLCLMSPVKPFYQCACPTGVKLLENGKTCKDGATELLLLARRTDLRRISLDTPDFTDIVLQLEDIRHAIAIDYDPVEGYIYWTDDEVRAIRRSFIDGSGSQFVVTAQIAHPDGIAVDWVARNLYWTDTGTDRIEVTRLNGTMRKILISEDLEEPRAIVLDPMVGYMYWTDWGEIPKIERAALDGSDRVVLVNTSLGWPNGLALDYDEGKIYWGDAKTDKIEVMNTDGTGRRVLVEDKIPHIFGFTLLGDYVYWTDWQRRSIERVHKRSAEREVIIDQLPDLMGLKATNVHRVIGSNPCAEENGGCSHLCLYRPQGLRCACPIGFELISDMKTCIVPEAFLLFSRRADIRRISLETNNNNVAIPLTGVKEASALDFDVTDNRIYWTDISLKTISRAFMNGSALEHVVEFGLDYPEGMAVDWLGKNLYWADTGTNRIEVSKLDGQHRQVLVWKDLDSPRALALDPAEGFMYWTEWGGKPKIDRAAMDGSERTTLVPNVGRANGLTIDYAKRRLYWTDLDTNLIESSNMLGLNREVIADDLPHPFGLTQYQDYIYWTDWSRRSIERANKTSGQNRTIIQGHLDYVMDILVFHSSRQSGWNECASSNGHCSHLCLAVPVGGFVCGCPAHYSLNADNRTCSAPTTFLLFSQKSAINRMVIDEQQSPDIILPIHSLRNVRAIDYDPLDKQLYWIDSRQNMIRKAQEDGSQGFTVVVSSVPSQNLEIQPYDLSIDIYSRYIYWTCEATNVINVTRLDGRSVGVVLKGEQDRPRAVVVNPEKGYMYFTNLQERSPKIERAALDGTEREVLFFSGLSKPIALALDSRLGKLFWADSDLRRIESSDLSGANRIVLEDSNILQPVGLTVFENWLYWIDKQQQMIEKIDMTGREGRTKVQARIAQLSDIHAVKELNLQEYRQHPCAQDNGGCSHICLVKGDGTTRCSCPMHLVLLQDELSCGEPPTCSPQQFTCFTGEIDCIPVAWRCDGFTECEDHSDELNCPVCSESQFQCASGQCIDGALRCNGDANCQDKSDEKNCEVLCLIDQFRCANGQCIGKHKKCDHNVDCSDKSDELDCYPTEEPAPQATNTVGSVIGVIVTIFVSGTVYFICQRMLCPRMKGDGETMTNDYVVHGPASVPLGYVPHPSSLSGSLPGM

[7] = target: T3, Fzd4–LRP6 heterodimer in biotinylated …; assay: BLI; kinetic, without Norrin
[8] = target: Fzd4–LRP6 heterodimer in biotinylated nanodiscs (mouse | human) (UniProt Q61088); assay: BLI; nanodiscs with 5% PIP2 on SMAP biosensors, 0.01 to 32 μM DEP, empty nanodiscs subtracted, 25 °C, 20 mM Hepes pH 7.4, 150 mM NaCl, 1 mM EDTA, 1 mg/ml BSA; steady state
[9] = target: Fzd4–LRP6 heterodimer in biotinylated nanodiscs, prebound to Norrin (mouse | human | not stated) (UniProt Q61088); assay: as above
[10] = target: T3, Fzd4–LRP6 heterodimer in biotinylated …; assay: BLI
[11] = target: T4, LRP6 monomer in biotinylated nanodiscs (human, UniProt O75581 20-1439); assay: BLI
T4 chain: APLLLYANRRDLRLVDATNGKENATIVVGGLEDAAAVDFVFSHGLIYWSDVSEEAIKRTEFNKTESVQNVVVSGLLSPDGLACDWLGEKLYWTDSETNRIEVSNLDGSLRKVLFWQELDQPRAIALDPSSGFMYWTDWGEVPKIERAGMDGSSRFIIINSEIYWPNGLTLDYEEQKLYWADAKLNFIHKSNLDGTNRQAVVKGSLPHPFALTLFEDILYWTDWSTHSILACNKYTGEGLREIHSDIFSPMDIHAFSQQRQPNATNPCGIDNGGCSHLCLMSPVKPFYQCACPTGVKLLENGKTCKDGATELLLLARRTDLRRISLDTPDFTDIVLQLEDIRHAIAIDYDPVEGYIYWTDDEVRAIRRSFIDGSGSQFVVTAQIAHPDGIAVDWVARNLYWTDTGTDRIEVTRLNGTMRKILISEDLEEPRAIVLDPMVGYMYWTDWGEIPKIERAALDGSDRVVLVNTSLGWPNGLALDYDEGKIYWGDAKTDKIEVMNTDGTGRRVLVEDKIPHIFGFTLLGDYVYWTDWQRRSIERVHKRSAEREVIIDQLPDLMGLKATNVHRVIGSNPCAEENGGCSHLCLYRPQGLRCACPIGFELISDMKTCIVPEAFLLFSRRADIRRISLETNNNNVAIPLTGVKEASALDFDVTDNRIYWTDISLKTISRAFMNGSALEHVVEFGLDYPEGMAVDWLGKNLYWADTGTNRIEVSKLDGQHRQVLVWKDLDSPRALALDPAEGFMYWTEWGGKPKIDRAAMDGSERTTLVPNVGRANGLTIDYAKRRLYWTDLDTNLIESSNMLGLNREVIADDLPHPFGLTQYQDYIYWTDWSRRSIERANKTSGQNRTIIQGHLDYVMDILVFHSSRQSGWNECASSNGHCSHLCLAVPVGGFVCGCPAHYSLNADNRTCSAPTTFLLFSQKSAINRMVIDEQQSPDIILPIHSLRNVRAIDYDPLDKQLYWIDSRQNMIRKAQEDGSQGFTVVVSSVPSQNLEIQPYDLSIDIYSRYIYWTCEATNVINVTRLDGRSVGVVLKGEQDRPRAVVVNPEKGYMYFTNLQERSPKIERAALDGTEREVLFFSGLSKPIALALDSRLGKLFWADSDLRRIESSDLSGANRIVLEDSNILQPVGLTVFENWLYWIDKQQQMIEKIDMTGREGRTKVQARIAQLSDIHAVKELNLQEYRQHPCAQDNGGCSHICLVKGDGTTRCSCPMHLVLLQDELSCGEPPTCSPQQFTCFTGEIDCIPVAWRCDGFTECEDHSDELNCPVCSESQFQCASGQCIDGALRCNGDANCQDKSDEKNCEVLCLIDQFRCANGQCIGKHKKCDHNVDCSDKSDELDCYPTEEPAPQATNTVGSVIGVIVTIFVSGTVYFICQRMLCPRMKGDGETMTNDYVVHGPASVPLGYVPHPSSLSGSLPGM

[12] = target: T4, LRP6 monomer in biotinylated nanodiscs; assay: BLI; kinetic
[13] = target: Fzd4–LRP6 heterodimer in biotinylated nanodiscs (mouse | human) (UniProt Q61088); assay: BLI; biotinylated nanodiscs on streptavidin biosensors, 0-100 nM DKK1, empty discs subtracted, 25 °C, 20 mM Hepes pH 7.4, 150 mM NaCl, 1 mM EDTA, 1 mg/ml BSA; steady state

FLAG-Fzd4-3C-sGFP11-PDZ (Sf9) (from UniProt Q61088 42-537) (receptor)
percent of the expressed protein GFP dimerized [1]: 50%

B1: MBP–Norrin (ligand)
chain: DSDPRRCMRHHYVDSISHPLYKCSSKMVLLARCEGHCSQASRSEPLVSFSTVLKQPFRSSCHCCRPQTSKLKALRLRCSGGMRLTATYRYILSCHCEECNS
koff [2]: 0.00034 s⁻¹ | Kd [3]: 0.46 nM

B2: Dishevelled-2 (Dvl2) DEP domain (domain or fragment)
chain: GLSVHMDMASVTKAMAAPESGLEVRDRMWLKITIPNAFLGSDVVDWLYHHVEGFPERREARKYASGLLKAGLIRHTVNKITFSEQCYYVFGDLSG
koff [4]: 0.013 s⁻¹ | Kd [5]: 420 nM | koff [6]: 0.0095 s⁻¹ | Kd [7]: 260 nM | Kd [8]: 220 nM | Kd [9]: 198 nM

B3: Dikkopf1 (DKK1) (ligand)
chain: TLNSVLNSNAIKNLPPPLGGAAGHPGSAVSAAPGILYPGGNKYQTIDNYQPYPCAEDEECGTDEYCASPTRGGDAGVQICLACRKRRKRCMRHAMCCPGNYCKNGICVSSDQNHFRGEIEETITESFGNDHSTLDGYSRRTTLSSKMYHTKGQEGSVCLRSSDCASGLCCARHFWSKICKPVLKEGQVCTKHRRKGSHGLEIFQRCYCGEGLSCRIQKDHHQASNSSRLHTCQRH
koff [10]: 0.0057 s⁻¹ | koff [11]: 0.012 s⁻¹ | Kd [12]: 16.7 nM | Kd [13]: 5.6 nM
